Experimental findings from US20050032692A1 (BOARD OF TRUSTEES OF THE UNIVERSITY OF ILLINOIS, published 2005) are described below.

One assay deals with Cdk2 protein (UniProt P24941 1-298). Kind of assay: Co-IP from transfected U2OS extracts with Cdk2 antibody, Western blot with T7 tag antibody. (Immunoblotting shows a protein as a band on a membrane.)
A further assay has as its target T1, GFP-FoxM1B 1-688 protein (human, UniProt Q08050 1-703).
T1 construct: C-terminal truncation; construction not described; not shown: GFP
T1 sequence: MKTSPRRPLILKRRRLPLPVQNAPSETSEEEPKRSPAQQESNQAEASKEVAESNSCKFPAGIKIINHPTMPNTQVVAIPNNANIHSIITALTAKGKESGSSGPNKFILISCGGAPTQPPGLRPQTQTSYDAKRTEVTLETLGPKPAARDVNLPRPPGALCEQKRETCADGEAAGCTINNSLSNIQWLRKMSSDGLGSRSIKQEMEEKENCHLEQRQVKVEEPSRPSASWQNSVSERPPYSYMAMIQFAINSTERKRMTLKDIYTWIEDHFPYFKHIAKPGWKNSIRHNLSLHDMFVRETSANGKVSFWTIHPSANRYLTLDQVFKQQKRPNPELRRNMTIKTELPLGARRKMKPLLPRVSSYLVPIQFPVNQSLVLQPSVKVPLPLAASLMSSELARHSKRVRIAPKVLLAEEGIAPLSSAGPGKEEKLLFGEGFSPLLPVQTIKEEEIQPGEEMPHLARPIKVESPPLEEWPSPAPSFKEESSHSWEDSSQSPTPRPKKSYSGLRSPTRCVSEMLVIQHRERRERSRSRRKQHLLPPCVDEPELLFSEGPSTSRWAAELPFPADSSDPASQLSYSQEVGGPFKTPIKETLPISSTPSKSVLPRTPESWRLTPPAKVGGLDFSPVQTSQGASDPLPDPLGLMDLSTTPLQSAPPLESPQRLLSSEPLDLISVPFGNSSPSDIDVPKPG
Kind of assay: Co-IP from transfected U2OS extracts.

B1: CMV T7-FoxM1B L641A mutant protein (other, not shown: small tags and cut ends)
chain: MKTSPRRPLILKRRRLPLPVQNAPSETSEEEPKRSPAQQESNQAEASKEVAESNSCKFPAGIKIINHPTMPNTQVVAIPNNANIHSIITALTAKGKESGSSGPNKFILISCGGAPTQPPGLRPQTQTSYDAKRTEVTLETLGPKPAARDVNLPRPPGALCEQKRETCADGEAAGCTINNSLSNIQWLRKMSSDGLGSRSIKQEMEEKENCHLEQRQVKVEEPSRPSASWQNSVSERPPYSYMAMIQFAINSTERKRMTLKDIYTWIEDHFPYFKHIAKPGWKNSIRHNLSLHDMFVRETSANGKVSFWTIHPSANRYLTLDQVFKQQKRPNPELRRNMTIKTELPLGARRKMKPLLPRVSSYLVPIQFPVNQSLVLQPSVKVPLPLAASLMSSELARHSKRVRIAPKVLLAEEGIAPLSSAGPGKEEKLLFGEGFSPLLPVQTIKEEEIQPGEEMPHLARPIKVESPPLEEWPSPAPSFKEESSHSWEDSSQSPTPRPKKSYSGLRSPTRCVSEMLVIQHRERRERSRSRRKQHLLPPCVDEPELLFSEGPSTSRWAAELPFPADSSDPASQLSYSQEVGGPFKTPIKETLPISSTPSKSVLPRTPESWRLTPPAKVGGLDFSPVQTSQGASDPLPDPLGAMDLSTTPLQSAPPLESPQRLLSSEPLDLISVPFGNSSPSDIDVPKPGSPEPQVSGLAANRSLTEGLVLDTMNDSLSKILLDISFPGLDEDPLGPDNINWSQFIPELQ
notes: also called CMV FoxM1B L641A
On to B1, for which, in the assay with Cdk2 protein, the binding result is “no binding”.

B2: HA-p19^ARF protein, wild type (other, UniProt Q64364 1-169, looked up, not shown: small tags and cut ends)
chain: MGRRFLVTVRIQRAGRPLQERVFLVKFVRSRRPRTASCALAFVNMLLRLERILRRGPHRNPGPGDDDGQRSRSSSSAQLRCRFELRGPHYLLPPGARRSAGRLPGHAGGAARVRGSAGCARCLGSPAARLGPRAGTSRHRAIFAFRWVLFVFRWVVFVYRWERRPDRRA
notes: also called HA tagged p19; WT p19
In the case of B2, in the assay with GFP-FoxM1B 1-688 protein, the binding result is on record as “no binding”.
